Assay results as given in patent US20230119066A1.

What was measured:
[1] = target: mouse C-C Motif Chemokine Receptor 8 (mCCR8) (mouse) (UniProt P56484); assay: flow cytometry on activated mouse splenic CD4+ cells
[2] = target: mouse C-C Motif Chemokine Receptor 8 (mCCR8) (mouse) (UniProt P56484); assay: flow cytometry on mCCR8-expressing CHO cells
[3] = target: mouse C-C Motif Chemokine Receptor 8 (mCCR8) (mouse) (UniProt P56484); assay: cell-based or functional assay
[4] = target: mouse C-C Motif Chemokine Receptor 8 (mCCR8) (mouse) (UniProt P56484); assay: flow cytometry on mouse thymic CD4+ cells

mouse C-C Motif Chemokine Receptor 8 (mCCR8) (mouse), sequence (P56484 whole entry): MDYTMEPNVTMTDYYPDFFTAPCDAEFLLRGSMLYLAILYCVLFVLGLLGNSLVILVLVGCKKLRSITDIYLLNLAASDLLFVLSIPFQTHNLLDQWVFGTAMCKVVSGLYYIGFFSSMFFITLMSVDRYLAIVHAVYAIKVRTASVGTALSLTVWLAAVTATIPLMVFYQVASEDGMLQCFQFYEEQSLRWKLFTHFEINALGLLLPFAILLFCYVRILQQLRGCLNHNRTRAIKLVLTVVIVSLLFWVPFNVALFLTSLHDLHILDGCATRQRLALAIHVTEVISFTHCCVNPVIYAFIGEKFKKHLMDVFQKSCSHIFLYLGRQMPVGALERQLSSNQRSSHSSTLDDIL

EC50 [1]: 6.16 nM | EC50 [2]: 6.44 nM | EC50, crosslinking of mouse FcgRIV+ luciferase reporter effector cells [3]: 6.34 nM | IC50, blockade of Ca flux on mCCR8-expressing CHO cells [3]: 19.3 nM | EC50 [4]: 4 nM
Substance: anti-CCR8-mIgG2a, mouse IgG2a isotype of rat anti-mCCR8 mAb Clone SA214G2 (BioLegend) (antibody)
